Measurements published in publication PMC2706296 (Nature structural & molecular biology, 2009).
Each block holds one binder with its values, some of them ahead of it.

Legend:
[1] = molecular target: T1, Nup85 C-terminally tagged with a tandem affinity purification (TAP) tag (budding yeast (endogenous), UniProt P46673 1-744); test: affinity purification with mass spectrometry
T1 sequence (looked up): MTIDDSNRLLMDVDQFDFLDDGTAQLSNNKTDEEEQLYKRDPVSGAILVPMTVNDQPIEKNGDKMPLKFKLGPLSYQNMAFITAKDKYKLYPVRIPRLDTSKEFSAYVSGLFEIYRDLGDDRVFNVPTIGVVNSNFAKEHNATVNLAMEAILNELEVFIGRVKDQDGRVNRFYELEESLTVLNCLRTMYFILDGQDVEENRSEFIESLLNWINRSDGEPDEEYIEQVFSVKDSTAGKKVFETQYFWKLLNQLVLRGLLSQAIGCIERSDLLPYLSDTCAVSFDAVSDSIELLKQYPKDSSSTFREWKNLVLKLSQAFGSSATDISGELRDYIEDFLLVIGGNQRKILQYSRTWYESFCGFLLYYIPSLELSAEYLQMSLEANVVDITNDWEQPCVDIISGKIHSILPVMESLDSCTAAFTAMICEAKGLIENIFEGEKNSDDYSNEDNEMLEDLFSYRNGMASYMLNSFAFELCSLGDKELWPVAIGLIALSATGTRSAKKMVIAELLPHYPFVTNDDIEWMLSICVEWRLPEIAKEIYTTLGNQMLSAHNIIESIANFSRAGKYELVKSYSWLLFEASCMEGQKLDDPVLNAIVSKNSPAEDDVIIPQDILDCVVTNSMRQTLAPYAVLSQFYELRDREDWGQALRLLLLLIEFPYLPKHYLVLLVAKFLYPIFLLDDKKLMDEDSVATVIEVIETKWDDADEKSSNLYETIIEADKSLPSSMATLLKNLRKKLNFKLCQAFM

Nup84 = Nup84 (budding yeast (endogenous), UniProt P52891 1-726); test: negative-stain EM, random conical tilt 3D reconstruction
Chain of Nup84 (P52891 whole entry): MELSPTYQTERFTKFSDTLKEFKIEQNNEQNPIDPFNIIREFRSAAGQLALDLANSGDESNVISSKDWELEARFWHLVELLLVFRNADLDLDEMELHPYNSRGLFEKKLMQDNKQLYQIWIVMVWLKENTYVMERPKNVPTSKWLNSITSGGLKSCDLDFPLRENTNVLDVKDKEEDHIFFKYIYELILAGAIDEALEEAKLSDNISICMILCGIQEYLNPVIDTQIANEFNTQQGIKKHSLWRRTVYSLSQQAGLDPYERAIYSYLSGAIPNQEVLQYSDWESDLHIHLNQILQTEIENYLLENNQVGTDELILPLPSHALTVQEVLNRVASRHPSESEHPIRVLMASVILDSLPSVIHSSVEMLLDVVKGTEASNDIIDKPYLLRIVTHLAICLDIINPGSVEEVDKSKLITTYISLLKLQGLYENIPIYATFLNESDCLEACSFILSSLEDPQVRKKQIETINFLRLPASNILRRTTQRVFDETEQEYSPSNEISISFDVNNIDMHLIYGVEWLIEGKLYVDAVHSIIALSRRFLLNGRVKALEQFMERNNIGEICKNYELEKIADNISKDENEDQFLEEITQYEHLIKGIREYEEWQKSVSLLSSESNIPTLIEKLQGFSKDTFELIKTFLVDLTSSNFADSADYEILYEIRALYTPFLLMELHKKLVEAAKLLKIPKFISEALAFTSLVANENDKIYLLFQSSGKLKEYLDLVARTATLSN

binding result [1]: binds
B1: Seh1 (natural protein, budding yeast (endogenous), UniProt P53011 1-349, looked up)
chain: MQPFDSGHDDLVHDVVYDFYGRHVATCSSDQHIKVFKLDKDTSNWELSDSWRAHDSSIVAIDWASPEYGRIIASASYDKTVKLWEEDPDQEECSGRRWNKLCTLNDSKGSLYSVKFAPAHLGLKLACLGNDGILRLYDALEPSDLRSWTLTSEMKVLSIPPANHLQSDFCLSWCPSRFSPEKLAVSALEQAIIYQRGKDGKLHVAAKLPGHKSLIRSISWAPSIGRWYQLIATGCKDGRIRIFKITEKLSPLASEESLTNSNMFDNSADVDMDAQGRSDSNTEEKAELQSNLQVELLSEHDDHNGEVWSVSWNLTGTILSSAGDDGKVRLWKATYSNEFKCMSVITAQQ

binding result (Nup84): binds
B2: Nup145C (natural protein, budding yeast (endogenous), UniProt P49687 606-1317, looked up)
chain: SIWGLVNEEDAEIDEDDLSKQEDGGEQPLRKVRTLAQSKPSDKEVILKTDGTFGTLSGKDDSIVEEKAYEPDLSDADFEGIEASPKLDVSKDWVEQLILAGSSLRSVFATSKEFDGPCQNEIDLLFSECNDEIDNAKLIMKERRFTASYTFAKFSTGSMLLTKDIVGKSGVSIKRLPTELQRKFLFDDVYLDKEIEKVTIEARKSNPYPQISESSLLFKDALDYMEKTSSDYNLWKLSSILFDPVSYPYKTDNDQVKMALLKKERHCRLTSWIVSQIGPEIEEKIRNSSNEIEQIFLYLLLNDVVRASKLAIESKNGHLSVLISYLGSNDPRIRDLAELQLQKWSTGGCSIDKNISKIYKLLSGSPFEGLFSLKELESEFSWLCLLNLTLCYGQIDEYSLESLVQSHLDKFSLPYDDPIGVIFQLYAANENTEKLYKEVRQRTNALDVQFCWYLIQTLRFNGTRVFSKETSDEATFAFAAQLEFAQLHGHSLFVSCFLNDDKAAEDTIKRLVMREITLLRASTNDHILNRLKIPSQLIFNAQALKDRYEGNYLSEVQNLLLGSSYDLAEMAIVTSLGPRLLLSNNPVQNNELKTLREILNEFPDSERDKWSVSINVFEVYLKLVLDNVETQETIDSLISGMKIFYDQYKHCREVAACCNVMSQEIVSKILEKNNPSIGDSKAKLLELPLGQPEKAYLRGEFAQDLMKCTYKI
